Here are results for 9 molecules from US6372211B1, “Methods and compositions for controlling insects” (Monsanto Technolgy LLC, priority 1997, dated 2002).

Assay [1] relates to Mr 50,000 protein. The assay is described as follows: Mr 50,000 protein assay (hydrogen peroxide colorimetric). It is filed as biochemical, Trichoderma sp. Conditions: hydrogen peroxide formation monitored. How it is done: Hydrogen peroxide appears to be the byproduct of the Mr 50,000 protein reaction. The formation of hydrogen peroxide was monitored by a colorimetric assay (Gallo, 1981). P2C was prepared by two separate methods for the initial Mr 50,000 protein assay. The two methods used for preparing P2C were
1) L-lysine with lysine oxidase and catalase; and
2) DL-pipecolic acid with D-amino acid oxidase and catalase.
P2C was isolated from the protein mixture by filtration using an Amicon filter (10 kDa cutoff) before using in the Mr 50,000 protein assay.

Assay [2] has as its system T. viride lysine oxidase. Conditions: data from Kusakabe et al., 1980; cited from earlier work.
The subject of assay [3] is F22844 lysine oxidase. The assay is described as follows: Substrate specificity of F22844 lysine oxidase. Conditions: lysine = 100, L-isomers. It is filed as biochemical, Trichoderma sp.
In assay [4] the test system is corn rootworm. The assay is described as follows: Corn rootworm bioassay (species not stated). It is filed as in vivo, Diabrotica spp. As to conditions: Table 11, yeast recombinant lysine oxidase 14 ppm, F22844 Mr 50,000 10 ppm, alone or combined. How it is done: (§1) These leads were not characterized further. […] Lysine oxidase from Trichoderma viride is available commercially from Sigma (St. Louis, Mo.). The enzyme was purified to a single band from this preparation and bioassayed against southern corn rootworm. Bioassays were conducted to compare the concentration responses of the T. viride lysine oxidase (±Mr 50,000 protein from F22844) with the lysine oxidase purified from F22844. The bioactivity of the T viride lysine oxidase agrees very well with the bioactivity of lysine oxidase from F22844 when bioassayed in the presence of tedanalactam synthase from F22844 (Table 10). Very similar stunting levels are seen at equivalent doses (compare Table 10 to Table 7). In addition, no bioactivity is seen with either lysine oxidase in the absence of tedanalactam synthase from F22844.
Yeast (Saccharomyces cerevisiae) transformed with pMON25030 were grown in the presence of galactose and shown to produce enzymatically active lysine oxidase. Yeast transformed with pMON25030 had soluble lysine oxidase activity in both disrupted cell pellets and cell free culture media. […] Lysine oxidase from the yeast culture media was subsequently purified and shown to have bioactivity against corn rootworm when combined with tedanalactam synthase.

Assay [5] concerns southern corn rootworm larvae. Description: Diet overlay assay with SCRW. It is filed as in vivo. Conditions: for Av. Wght: Tris control 2.6. The source says:
However, ingestion of LO69 expressing root tissue by CRW is likely to result in activation of lysine oxidase by proteolysis and subsequent insecticidal activity when the tedanalactam synthase protein is also present. […] The absence of LO activity in the proenzyme sample was confirmed by direct enzymatic assays just prior to exposure to insects.

The test system of assay [6] is southern corn rootworm. Description: Southern corn rootworm artificial diet bioassay. It is filed as in vivo. How it is done:
These proteins were then purified by sizing and ion exchange chromatography. […] In both cases, no bioactivity was detected when the proteins were assayed individually but significant stunting was seen when the proteins were combined in assay.
Native-PAGE studies were effective in confirming that the Mr 56,000 and Mr 50,000 proteins were responsible for the southern corn rootworm bioactivity of F22844. The chromatographically purified Mr 56,000 and Mr 50,000 proteins were further purified by native PAGE. […] A sample containing a combination of the two proteins at concentrations of 9.7 μg/mL of Mr 56,000 and 2.5 μg/mL of Mr 50,000 yielded 89% stunting of corn rootworm larvae (Table 3). […]
as §1
An NcoI-HindIII fragment containing the full length tedanalactam synthase cDNA gene (SEQ ID NO:40) from pMON25424 was interested into pMON6235, an E. coli expression vector containing an arabinose inducible promoter and G10 leader sequence to produce pMON25428 (FIG. 12). […] The relative migration of the expressed protein on SDS-PAGE was identical to the F22844 purified tedanalactam synthase. The recombinant tedanalactam synthase was purified in a 5 step procedure from E. coli expressing the tedanalactam synthase gene. Lysine oxidase was purified from a commercial preparation of T. viride lysine oxidase. Both the lysine oxidase and tedanalactam synthase were >95% pure by SDS-PAGE.

In assay [7] the test system is proteases present in the midgut of southern corn rootworm. The assay is described as follows: Activation of LO69 proenzyme by midgut extract. It is filed as biochemical. The source says: The lysine oxidase gene encodes a 69 kDa proenzyme which is N-terminally cleaved when expressed in Trichoderma or Saccharomyces to yield a mature and enzymatically active protein of approximately 60 kDa. To determine if the lysine oxidase-69 (LO69) proenzyme (Seq ID NO: 46) expressed in corn protoplasts can be activated by the proteases present in the midgut of southern corn rootworm, midguts were dissected from late instar larvae and the proteases extracted. Protease activity assays confirmed the presence of proteases in this extract. This extract and appropriate controls were incubated for about 22 hours at 25° C. with extracts from protoplasts electroporated with pMON25040 (i.e. the CaMV35S promoter and hsp70 intron fused to the 1.9 kb lysine oxidase gene encoding the Mr 69,000 proprotein, SEQ ID NO:45) and non-electroporated controls and assayed for lysine oxidase activity.

The mark [8] stands for this setting: each protein at 2 ppm, of larval weight vs control.
[9] abbreviates: single protein at 10 ppm, 50 kD activity ascribed to low level LO contamination.

On to `O=C(O)C1CCCC=N1` (stereo not shown) [P2C, Δ^1-piperideine-2-carboxylate], for which the “substrate of Mr 50,000 protein” value in assay [1] is listed as “catalyses the conversion of Δ^1-piperideine-2-carboxylate (P2C) to product I”.
As for `NCCC[C@H](N)C(=O)O` [Ornithine], the “Relative activity (%)” value in assay [2] is 18.2%; in assay [3], 10.8%.
Regarding `N[C@@H](Cc1ccccc1)C(=O)O` [Phenylalanine], the entries for the “Relative activity (%)” value in assay [2] and in assay [3] were 8.3% and 6.6%, respectively.
As for `O=C(O)C1CCCCN1` (stereo not shown) [Pipecolic acid], the “substrate of Mr 50,000 protein” value in assay [1] is on record as “not substrates”.
Consider `NCCCC[C@H](N)C(=O)O` [Lysine], for which the results for the “Relative activity (%)” value in assay [2] and in assay [3] were 100% and 100.0%, respectively. The “substrate of Mr 50,000 protein” value in assay [1] is “not substrates”.
On to `N[C@@H](Cc1c[nH]cn1)C(=O)O` [Histidine], for which the “Relative activity (%)” value in assay [2] was 3.8%; in assay [3], 5.0%.
On to `N=C(N)NCCC[C@H](N)C(=O)O` [Arginine], for which the “Relative activity (%)” value in assay [2] was 6.1%; in assay [3] it was 2.6%.

B1: Mr 50,000: Mr 50,000 protein from F22844, tedanalactam synthase converting Δ1-piperideine-2-carboxylate to tedanalactam (protein)
chain: MADEIYDVVVIGGGPIGLAAAYEAAKEGAKVVVLEQNNFFNHAGSSNDLARMFRTMYTEDYMADLAKEALALWDDLERDSGTPLRWMSGLLNFGDKDYGGDTPEGTLLGPIANLDRLGMTYQELSAKEIEARYPFKNLDPKYIGLFAPDNGLINVQLLLRTLYKLSLDYGATAKQHTKVQAIKPSNHSHYAWDVHAIRHETEAAVFKAKKIIIASGAYVNHVLKPSFDISLDLDIWEMVFSYFNCNAGPKGTIFPSMWFQFAPDKNGRSQLFYGFPALPWGPPNLARIAVDAATRRIKDPNERLTSTINPEDIADTQEFIRNHCVNVDPTIPALTSSCLQTNVFDNMFVLDFVPEKYLNGGAKDSVVVFTAGWAMKFVPMIGKALADMALKGSSPYARKEFAITRTDSATGKGIIVEGGSENRSVKSSAFVFYSPGIRFFVCRLP
One may read the % inhibition as the drop in the measured response relative to a control, in per cent. With B1, the “# of survivors” value amounted to 43 in assay [4] (16 wells/sample, buffer 61, 45) and 80 in assay [6] (Table 12, SCRW neonate, T. viride lysine oxidase 10 ppm, E. coli produced Mr 50,000 18 ppm, alone or combined, buffer 51, 52). Moreover, the “Mean larval wt. (mg) (±SEM)” value in assay [4] (buffer 0.94, 0.84) is 0.80 ± 0.07 mg. The “Av. Wght” value was 3.5 mg in assay [5] (each protein at 2 ppm) and 1.5 mg in assay [5] (single protein at 10 ppm). Also, the Surv in assay [5] (each protein at 2 ppm, n 18) is on record as 18; in assay [5] (single protein at 10 ppm) it was 18. The “% inhibition” value in assay [5] (setting [8]) is recorded as 0%; in assay [5] (setting [9]), 39%. Besides, the “% Stunting” value is listed as “NSS” in assay [6] (Table 2a, Mr 56,000 10 μg/mL, Mr 50,000 1.5 μg/mL, alone or combined, NSS = not statistically significant); “NSS” in assay [6] (Table 3, native PAGE purified, Mr 56,000 9.7 μg/mL, Mr 50,000 2.5 μg/mL, alone or combined); “NSS” in assay [6] (second table headed TABLE 2a, Mr 56,000 10 μg/mL, Mr 50,000 1.5 μg/mL, NSS = not statistically significant). Further, the “Mean larval wt. (mg) (+SEM)” value in assay [6] (Table 12, SCRW neonate, T. viride lysine oxidase 10 ppm, E. coli produced Mr 50,000 18 ppm, alone or combined, buffer 0.68, 0.57) was 0.52 ± 0.03 mg.

B2: LO69: 69 kDa lysine oxidase proenzyme (SEQ ID NO: 46); corn protoplast extract in Table 20, purified from Saccharomyces cerevisiae in Table 21 (protein)
chain: MDNVDFAESVRTRWARRLIREKVAKELNILTERLGEVPGIPPPNEGRFLGGGYSHDNLPSDPLYSSIKPALLKEAPRAEEELPPRKVCIVGAGVSGLYIAMILDDLKIPNLTYDIFESSSRTGGRLYTHHFTDAKHDYYDIGAMRYPDIPSMKRTFNLFKRTGMPLIKYYLDGENTPQLYNNHFFAKGVSDPYMVSVANGGTVPDDVVDSVGEKLQQAFGYYKEKLAEDFDKGFDELMLVDDMTTREYLKRGGPKGEAPKYDFFAIQWMETQNTGTNLFDQAFSESVIDSFDFDNPTKPEWYCIEGGTSLLVDAMKETLVHKVQNNKRVDAISIDLDAPDDGNMSVRIGGKDHSGYSTVFNTTALGCLDRMDLRGLNLHPTQADAIRCLHYDNSTKVALKFSYPWWIKDCGITCGGAASTDLPLRTCVYPSYNLDDTGEAVLLASYTWSQDATRIGSLVKDAPPQPPKEDELVELILQNLARLHAEHMTYEKIKEAYTGVYHAYCWANDPNVGGAFALFGPGQFSNLYPYLMRPAAGGKFHIVGEASSVHHAWIIGSLESAYTAVYQFLYKYKMWDYLRLLLERWQYGLQELETGKHGTAHLQFILGSLPKEYQVKI
On to B2, for which the “Av. Wght” value turned out to be 2.1 mg in assay [5] (each protein at 2 ppm), 3.3 mg in assay [5] (single protein at 10 ppm) and 2.8 mg in assay [5] (single protein at 20 ppm). In addition, the Surv in assay [5] (each protein at 2 ppm, n 18) was determined as 17; in assay [5] (single protein at 10 ppm), 17; in assay [5] (single protein at 20 ppm, n 18), 18. The “% inhibition” value in assay [5] (setting [8]) stood at 20%; in assay [5] (setting [9]) it was 0%; in assay [5] (single protein at 20 ppm), 0%. The “Lysine oxidase Sp. Act.” value stood at 12 U/μg protein in assay [7] (BSA); 1292 U/μg protein in assay [7] (corn protoplast extract, gut extract, about 22 hours at 25° C.); 997 U/μg protein in assay [7] (gut extract, protease inhibitor); 10 U/μg protein in assay [7] (heated gut extract). In addition, the “Fold Difference” value in assay [7] (BSA, relative to heated gut extract) is listed as 1.2; in assay [7] (gut extract, protease inhibitor, relative to heated gut extract), 97; in assay [7] (gut extract, relative to LO69 with heated gut extract), 130; in assay [7] (heated gut extract (reference)), 0.
